Experimental data published in IntAct's records for PubMed 24255178.

B1: Serine/threonine-protein kinase 3 (Homo sapiens), Q13188 (parent)
chain: MEQPPAPKSKLKKLSEDSLTKQPEEVFDVLEKLGEGSYGSVFKAIHKESGQVVAIKQVPVESDLQEIIKEISIMQQCDSPYVVKYYGSYFKNTDLWIVMEYCGAGSVSDIIRLRNKTLIEDEIATILKSTLKGLEYLHFMRKIHRDIKAGNILLNTEGHAKLADFGVAGQLTDTMAKRNTVIGTPFWMAPEVIQEIGYNCVADIWSLGITSIEMAEGKPPYADIHPMRAIFMIPTNPPPTFRKPELWSDDFTDFVKKCLVKNPEQRATATQLLQHPFIKNAKPVSILRDLITEAMEIKAKRHEEQQRELEEEEENSDEDELDSHTMVKTSVESVGTMRATSTMSEGAQTMIEHNSTMLESDLGTMVINSEDEEEEDGTMKRNATSPQVQRPSFMDYFDKQDFKNKSHENCNQNMHEPFPMSKNVFPDNWKVPQDGDFDFLKNLSLEELQMRLKALDPMMEREIEELRQRYTAKRQPILDAMDAKKRRQQNF
partner: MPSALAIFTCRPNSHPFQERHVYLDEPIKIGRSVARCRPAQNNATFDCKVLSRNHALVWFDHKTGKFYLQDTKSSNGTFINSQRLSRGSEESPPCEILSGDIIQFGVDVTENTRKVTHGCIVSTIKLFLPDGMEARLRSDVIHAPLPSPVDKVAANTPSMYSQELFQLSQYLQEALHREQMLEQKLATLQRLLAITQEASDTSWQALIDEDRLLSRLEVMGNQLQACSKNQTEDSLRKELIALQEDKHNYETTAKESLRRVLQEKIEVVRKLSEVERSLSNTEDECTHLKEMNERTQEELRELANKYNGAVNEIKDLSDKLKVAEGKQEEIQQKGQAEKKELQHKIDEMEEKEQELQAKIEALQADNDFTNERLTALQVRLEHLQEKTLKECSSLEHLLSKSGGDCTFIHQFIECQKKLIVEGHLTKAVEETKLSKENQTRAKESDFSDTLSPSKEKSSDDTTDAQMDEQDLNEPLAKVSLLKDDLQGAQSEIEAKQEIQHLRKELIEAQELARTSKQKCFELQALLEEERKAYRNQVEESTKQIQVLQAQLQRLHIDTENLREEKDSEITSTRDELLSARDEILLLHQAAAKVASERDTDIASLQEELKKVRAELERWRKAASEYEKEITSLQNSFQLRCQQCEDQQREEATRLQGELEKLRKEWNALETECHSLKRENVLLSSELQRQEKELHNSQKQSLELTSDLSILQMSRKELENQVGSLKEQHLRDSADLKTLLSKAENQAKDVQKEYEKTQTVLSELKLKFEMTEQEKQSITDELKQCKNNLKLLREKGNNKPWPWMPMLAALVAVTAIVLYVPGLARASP
B2: Sarcolemmal membrane-associated protein (Homo sapiens), Q14BN4 (parent)
chain: B1 partner
partner: B1 chain
B3: Sarcolemmal membrane-associated protein (Homo sapiens), Q14BN4 (parent)
chain: B1 partner
partner: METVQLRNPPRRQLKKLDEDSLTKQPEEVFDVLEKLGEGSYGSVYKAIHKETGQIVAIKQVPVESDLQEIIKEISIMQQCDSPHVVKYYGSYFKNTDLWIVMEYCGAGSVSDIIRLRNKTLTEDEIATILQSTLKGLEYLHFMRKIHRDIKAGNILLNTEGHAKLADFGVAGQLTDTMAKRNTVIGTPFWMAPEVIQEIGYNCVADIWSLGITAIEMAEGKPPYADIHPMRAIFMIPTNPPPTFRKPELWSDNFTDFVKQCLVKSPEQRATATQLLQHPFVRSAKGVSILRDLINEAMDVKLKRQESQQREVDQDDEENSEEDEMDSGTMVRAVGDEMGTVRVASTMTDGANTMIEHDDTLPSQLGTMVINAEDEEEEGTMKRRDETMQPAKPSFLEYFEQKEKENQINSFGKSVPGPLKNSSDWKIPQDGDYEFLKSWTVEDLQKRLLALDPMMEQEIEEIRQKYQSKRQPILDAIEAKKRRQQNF

Variants of: B1
Settings: with slmap_human SLMAP, Q14BN4

| Variant | effect of a mutation on the interaction |
| --- | --- |
| MEQPPAPKSKLKKLSEDSLTKQPEEVFDVLEKLGEGSYGSVFKAIHKESGQVVAIKQVPVESDLQEIIKEISIMQQCDSPYVVKYYGSYFKNTDLWIVMEYCGAGSVSDIIRLRNKTLIEDEIATILKSTLKGLEYLHFMRKIHRDIKAGNILLNTEGHAKLADFGVAGQLTDTMAKRNAVIGTPFWMAPEVIQEIGYNCVADIWSLGITSIEMAEGKPPYADIHPMRAIFMIPTNPPPTFRKPELWSDDFTDFVKKCLVKNPEQRATATQLLQHPFIKNAKPVSILRDLITEAMEIKAKRHEEQQRELEEEEENSDEDELDSHTMVKTSVESVGTMRATSTMSEGAQTMIEHNSTMLESDLGTMVINSEDEEEEDGTMKRNATSPQVQRPSFMDYFDKQDFKNKSHENCNQNMHEPFPMSKNVFPDNWKVPQDGDFDFLKNLSLEELQMRLKALDPMMEREIEELRQRYTAKRQPILDAMDAKKRRQQNF [T180A] | decreasing interaction |

Variants of: B2
Settings: with stk3_human STK3, Q13188

| Variant | effect of a mutation on the interaction |
| --- | --- |
| H55A | decreasing interaction |
| R32A | decreasing interaction |

Variants of: B3
Settings: with stk4_human STK4, Q13043

| Variant | effect of a mutation on the interaction |
| --- | --- |
| R32A | decreasing interaction |
| H55A | decreasing interaction |
